In US20220009992A1 (published 2022):
One block for each binder: values may come before it.

How the values were obtained:
[1] = biological target: T1, mesothelin (human MSLN, isoform 1, SEQ ID NO:50) peptide on HLA-A*02:01 (human); assay: multimer staining
T1 peptide: VLPLTVAEV

[2] = biological target: T2, CEAM3 peptide on HLA-A*02:01 (human); assay: cytokine release
T2 peptide: SMPLSVAEG

[3] = biological target: T3, LRCH3 peptide on HLA-A*02:01 (human); assay: cytokine release
T3 peptide: DLPLRVAEI

[4] = biological target: T4, MLEC peptide on HLA-A*02:01 (human); assay: cytokine release
T4 peptide: VLVLKFAEV

[5] = biological target: T5, CHPF2 peptide on HLA-A*02:01 (human); assay: cytokine release
T5 peptide: VLPLIVAEA

[6] = biological target: T6, ULK1 peptide on HLA-A*02:01 (human); assay: cytokine release
T6 peptide: VLYLKVAEL

[7] = biological target: T7, OR2J2 peptide on HLA-A*02:01 (human); assay: cytokine release
T7 peptide: VLALGIAEC

[8] = biological target: T8, EHF (peptide #10) peptide on HLA-A*02:01 (human); assay: cytokine release
T8 peptide: VLLLSLAEI

[9] = biological target: T9, OR2J1 peptide on HLA-A*02:01 (human); assay: cytokine release
T9 peptide: VLALGTAEC

[10] = biological target: T10, YN010 peptide on HLA-A*02:01 (human); assay: cytokine release
T10 peptide: VLALWEAEV

[11] = biological target: T11, DNHD1 peptide on HLA-A*02:01 (human); assay: cytokine release
T11 peptide: VLELLLAEL

[12] = biological target: T12, GALP peptide on HLA-A*02:01 (human); assay: cytokine release
T12 peptide: VLLLSLAET

[13] = biological target: T13, IN80B peptide on HLA-A*02:01 (human); assay: cytokine release
T13 peptide: MLPLPVAEG

[14] = biological target: T14, CHPF2 peptide on HLA-A*02:01 (human); assay: cytokine release
T14 peptide: VLPLLVAEA

[15] = biological target: T15, AL1L1 peptide on HLA-A*02:01 (human); assay: cytokine release
T15 peptide: VLELTEAEL

[16] = biological target: T16, ADPRH peptide on HLA-A*02:01 (human); assay: cytokine release
T16 peptide: VMHLATAEA

[17] = biological target: T17, mesothelin (human MSLN, isoform 1, SEQ ID NO:50) peptide on HLA-A*02:01 (human); assay: multimer staining
T17 peptide: SLLFLLFSL

binding result [1]: recognises
binding result [2]: no recognition
binding result [3]: no recognition
binding result [4]: no recognition
binding result [5]: no recognition
binding result [6]: no recognition
binding result [7]: no recognition
binding result [8]: no recognition
binding result [9]: no recognition
binding result [10]: no recognition
binding result [11]: no recognition
binding result [12]: no recognition
binding result [13]: no recognition
binding result [14]: no recognition
binding result [15]: no recognition
binding result [16]: no recognition
B1: Meso530-11A (TCR, V domains shown)
Valpha: GEDVEQSLFLSVREGDSSVINCTYTDSSSTYLYWYKQEPGAGLQLLTYIFSNMDMKQDQRLTVLLNKKDKHLSLRIADTQTGDSAIYFCAETPGYGGATNKLIFGTGTLLAVQP
Vbeta: DTEVTQTPKHLVMGMTNKKSLKCEQHMGHRAMYWYKQKAKKPPELMFVYSYEKLSINESVPSRFSPECPNSSLLNLHLHALQPEDSALYLCASSHGSLNTEAFFGQGTRLTVV

binding result [17]: recognises
B2: Meso20-3B (TCR, V domains shown)
Valpha: GQSLEQPSEVTAVEGAIVQINCTYQTSGFYGLSWYQQHDGGAPTFLSYNALDGLEETGRFSSFLSRSDSYGYLLLQELQMKDSASYFCAVNDASKIIFGSGTRLSIRP
Vbeta: DAGVIQSPRHEVTEMGQEVTLRCKPISGHDYLFWYRQTMMRGLELLIYFNNNVPIDDSGMPEDRFSAKMPNASFSTLKIQPSEPRDSAVYFCASSFTSGSYEQYFGPGTRLTVT

binding result [1]: recognises
binding result [2]: no recognition
binding result [3]: no recognition
binding result [4]: no recognition
binding result [5]: no recognition
binding result [6]: no recognition
binding result [7]: no recognition
binding result [9]: no recognition
binding result [10]: no recognition
binding result [11]: no recognition
binding result [12]: no recognition
binding result [13]: no recognition
binding result [14]: no recognition
binding result [15]: no recognition
binding result [16]: no recognition
B3: Meso530-11B (TCR, V domains shown)
Valpha: KQEVTQIPAALSVPEGENLVLNCSFTDSAIYNLQWFRQDPGKGLTSLLLIQSSQREQTSGRLNASLDKSSGRSTLYIAASQPGDSATYLCAVRLLFAQGGSEKLVFGKGTKLTVNP
Vbeta: ETGVTQSPTHLIKTRGQQVTLRCSSQSGHNTVSWYQQALGQGPQFIFQYYREEENGRGNFPPRFSGLQFPNYSSELNVNALELDDSALYLCASSFAGGRSDTQYFGPGTRLTVL
